{"source": "paper PMC11407943", "about": "“Cdc14 phosphatases use an intramolecular pseudosubstrate motif to stimulate and regulate catalysis” (The Journal of Biological Chemistry, 2024)", "tested_on": "T1, Cc1cc(=O)oc2c(F)c(OP(=O)(O)O)c(F)cc12", "T1 construct": "codons 1-411; N-terminal GST; expressed in E. coli", "type": "biochemical", "settings": "pH 7.5; 30.0 °C", "excerpt": "Enzym e kcat (sec-1) KM (µM)"}
{"substance": "hCdc14B^3A (Homo sapiens; K435A/L431A/R432A)", "values": [{"measurement": "Km", "value": 1.68, "unit": "µM"}]}
